# Results: patent publication US20240025955
# Test system: MMP3 resistant rAgrin (SEQ ID NO: 19)
substance,measurement,value
MMP3,MMP3 degradation,is resistant to MMP3 degradation
same,degradation of Agrin in the presence of increasing amounts of MMP3 for 24 hours,mutation of the MMP-3 cleavage site reduces degradation of Agrin (polypeptide defined by SEQ ID NO: 19)
